Laboratory results taken from patent US20160146830A1 (published 2016).
Where a chain is given by its changes, count along the chain named.

B1: TT-6 (antibody, V domains shown)
VH: QVQLVESGSEVRKPGASVKVSCKASGYTFSRYGLTWVRQAPGQGLEWMGWISGYNSNTNYAPKFQGRVTMTTDTSTNTAYLELRSLRSNDTAVYYCARDYFHSGSQYFFDYWGQGSLVTVSS
VL: DIRLTQSPSSLSASVGDRVTITCRSSQTISTYLNWYQQKPGEAPKILIYAASSLHTGVPSRFSGSGSGTDFTLTITSLQPEDFAIYHCQQSYSTPYTFGQGTKVEIK
notes: also called VH-7/VL-7
B2: TT-5 (antibody, V domains shown)
VH: QVQLQESGPGLVKPSETLSLTCTVSGGSINSYYWSWIRQSPGKGLEWIGYIYYTGINKYNPSLKSRVTISMDTSKRQVSLKVTSLTPADTAVYFCARLHPTCASTRCPENYGMDVWGQGTTVAVSS
VL: B1 VL
notes: also called VH-5/VL-5
B3: TT-11 (antibody, V domains shown)
VH: QVQLVESGAEVKKPGASVRVSCKASGYTFTNYGLAWVRQAPGQGLEWMGWITVYNGHTSYAQKFHDRVTMTTDTSTRTAYLEVRNLGSDDTAVYYCARKPRFYYDTSAWFEFWGQGTLVTVSS
VL: DIVLTQSPETLSVSPGESATLSCRASQSVSTDLAWYQHKPGQAPRLLIWGASTRATGIPARFSGSGSGTEFTLTISSLQSEDFAICFCHQYNNWPTFGQGTKVEIK
notes: also called VH-13/VL-13
B4: TT-8 (antibody, V domains shown)
VH: QVQLVESGGGLVKPGGSLRLSCAASGFSFSHYSMNWIRQAPGKGLEWVASITSGSTNMVYADSLRARFSISRDNAKNSLYLQMDSLSAEDTAVYYCARKGMGHYFDFWGQGTPVTVSS
VL: QTVVTQEPSSSVSLGGTVTLTCGLTSGPVTGAYYPSWHQQTPGQAPRTLIYNTYSLSSGVSDRFSGSILGNKAALTISGAQADDESDYYCVLYMGSGIWMFGGGTKLTVL
notes: also called VH-9/VL-9
B5: TT-2 (antibody, V domains shown)
VH: QVQLVQSGGGVKQPGGSLRLSCTASGFTFEDFNMHWVRQAPGKGLEWISYISGDGDRTHYSDSVRGRFTISRDNSGNSLYLQMTSLRTEDAGFYYCGKSYDYIRENLDSWGQGTLVTVSS
VL: QPGLTQPPSVSVAPGQTARITCGGNNIGSRHVHWYQQRPGQAPVLVVYDDDARPSGISGRFSGSNSGNTATLTISWVEAGDEADYYCQVSDSGREWGVFGSGTKVTVL
notes: also called VH-2/VL-2
B6: TT-1 (antibody, V domains shown)
VH: QVQLVESGGGLVQPGRSLRLSCVGSGFSFESYAMHWVRLAPGKGLEWVAGISWDSGAKGNADSVEGRFTISRDNAKKSVYLEMRSLRPEDTAFYYCAKAPIIGPKYYFYMDVWGKGTSVTVSS
VL: EIVLTQSPGTLSLSPGERATLSCRASQRVKSSYLAWYQQKPGQAPRLLIYDASTRATGIPDRFSGSGSGTDFTLTISRLEPEDVAVYYCQQYGTSRGTFGQGTRLEIK
notes: also called VH-1/VL-1
B7: TT-10 (antibody, V domains shown)
VH: B6 VH with V5Q, L39Q, V79L, Y106H
VL: B6 VL
notes: also called VH-11/VL-11
B8: TT-7 (antibody, V domains shown)
VH: QVQLQESGPGLVRPSQTLSLTCTVSGDSISDGDSFWSWIRQPPGKGPEWIGYISSSGTTYYYPSLRGRLTVSLDASKNQFSLSLTSVTAADTAVYYCARARNYGFPHFFDFWGRGTLVTVSS
VL: DIQMTQSPSTLSASVGDSVTITCRASQSITRWLAWYQQKPGKAPKLLIYKASLLESGVPSRFSGSGSGTEFTLTISSLQPDDFATYYCQQYNSYSPWTFGPGTKLEIK
notes: also called VH-8/VL-8
B9: TT-4 (antibody, V domains shown)
VH: QVTLKESGPALVKPTQTLTLTCTFSGFSLLSSGMCVSWIRQPPGKALEWLARIDWDEKKYYSPSLKTRLTISKDTSKDQVVLTMTNMDPLDTAMYSCARGVVPAGIPFDFWGQGIMVTVSS
VL: ETTLTQSPSTLPASVGDRVTITCRASENINSWLAWYQQKPGKAPKILIYRASNLESGVPSRFSGSGSGTEFTLTISSLQPDDFATYYCQHFDKYFSWTFGHGTKVEIK
notes: also called VH-4/VL-4
B10: TT-9 (antibody, V domains shown)
VH: QVQLQESGPGLVKPSGTLSLTCAVSGVPVYTGHWWTWVRQAPGKGLEWIGEIHHTVTTNYNPSLRSRVTISEDRSKNQISLTLQSVTAADTAVYFCARGEDCVGGSCYSADWGQGILVTVSS
VL: EIVLTQSPSSLSASVGDRVTITCRASQNIHLFLNWYQQRPGRVPKVLIYATSTLQSGVPSRFSGSGSGTDFTLTISSVQPEDFATYYCQQSFSTPRTFGPGTKVEIK
notes: also called VH-10/VL-10
B11: TT-3 (antibody, V domains shown)
VH: QVQLVQSGAEVKKPGASVRVSCKASGYTFTRYAMHWVRQAPGQRPEWMGWINVDNGNTEYSQKFQGRLTITRDTSASTAYMELSSLTSDDTAVYYCAKDRVRVVQAATTLDFWGQGTLVTVSS
VL: EIVLTQSPGTLSLSPGERATLSCRASQTIPSKYLGWYQQKLGQAPRLLIYGASSRATGIPDRFSGSGSGTDFTLTISRLEPEDFAVYYCQQYGSLSAITFGQGTRLEIK
notes: also called VH-3/VL-3

biological target: Tetanus toxoid (TT) (UniProt P04958 2-1315); assay: competitive ELISA, IgG equilibrated with soluble TT, TT-coated plate
Sequence (P04958 2-457 limits assumed, chain 1 of 2): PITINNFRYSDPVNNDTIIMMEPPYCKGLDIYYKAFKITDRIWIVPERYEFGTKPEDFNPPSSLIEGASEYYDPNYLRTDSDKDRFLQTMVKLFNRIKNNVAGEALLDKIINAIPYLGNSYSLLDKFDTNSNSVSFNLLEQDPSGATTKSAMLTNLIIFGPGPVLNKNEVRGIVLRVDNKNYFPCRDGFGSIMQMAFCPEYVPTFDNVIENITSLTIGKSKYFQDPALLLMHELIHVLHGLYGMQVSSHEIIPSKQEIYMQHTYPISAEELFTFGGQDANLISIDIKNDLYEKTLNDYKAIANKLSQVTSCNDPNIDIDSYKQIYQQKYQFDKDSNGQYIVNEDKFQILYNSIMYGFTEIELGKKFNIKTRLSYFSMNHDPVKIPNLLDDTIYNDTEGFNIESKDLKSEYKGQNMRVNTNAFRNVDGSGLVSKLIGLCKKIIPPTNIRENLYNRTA
Sequence (P04958 458-1315 limits assumed, chain 2 of 2): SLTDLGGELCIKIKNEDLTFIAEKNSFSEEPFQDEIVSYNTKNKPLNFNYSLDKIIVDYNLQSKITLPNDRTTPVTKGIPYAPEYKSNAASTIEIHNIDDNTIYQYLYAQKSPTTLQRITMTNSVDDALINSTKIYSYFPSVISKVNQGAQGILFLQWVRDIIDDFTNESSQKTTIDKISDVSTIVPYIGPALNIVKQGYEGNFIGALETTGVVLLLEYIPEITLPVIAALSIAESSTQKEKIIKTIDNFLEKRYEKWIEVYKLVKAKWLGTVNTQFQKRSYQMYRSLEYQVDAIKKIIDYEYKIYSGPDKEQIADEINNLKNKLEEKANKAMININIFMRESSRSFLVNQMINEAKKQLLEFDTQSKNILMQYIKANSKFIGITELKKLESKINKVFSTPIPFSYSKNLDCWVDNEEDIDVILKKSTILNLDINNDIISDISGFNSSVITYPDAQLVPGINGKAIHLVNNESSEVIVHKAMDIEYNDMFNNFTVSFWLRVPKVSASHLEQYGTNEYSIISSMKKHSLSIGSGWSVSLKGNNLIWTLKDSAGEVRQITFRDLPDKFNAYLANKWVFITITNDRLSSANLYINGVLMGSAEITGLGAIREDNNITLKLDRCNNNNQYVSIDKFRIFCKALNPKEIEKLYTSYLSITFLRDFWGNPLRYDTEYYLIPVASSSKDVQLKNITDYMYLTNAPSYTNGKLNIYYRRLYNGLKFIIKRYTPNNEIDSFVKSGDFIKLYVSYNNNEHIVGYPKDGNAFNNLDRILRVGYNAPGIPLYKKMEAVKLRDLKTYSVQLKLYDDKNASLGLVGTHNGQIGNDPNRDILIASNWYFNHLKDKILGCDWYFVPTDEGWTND

| Binder | Kd [nM] |
| --- | --- |
| B1 | 0.6 |
| B2 | 18.1 |
| B3 | 1.6 |
| B4 | 2.8 |
| B5 | 22.6 |
| B6 | 1.6 |
| B7 | 0.9 |
| B8 | 0.5 |
| B9 | 3.2 |
| B10 | 0.1 |
| B11 | 3.7 |
